Biological target: PcrV as expressed by live P. aeruginosa (strains 6077 and 6206) in the cytotoxicity and RBC lysis assays (Pseudomonas aeruginosa)
Assay: cell-based or functional assay

B1: anti-PcrV monoclonal antibody V2L2 (antibody, V domains shown)
VH: EMQLLESGGGLVQPGGSLRLSCAASGFTFSSYAMNWVRQAPGEGLEWVSAITISGITAYYTDSVKGRFTISRDNSKNTLYLQMNSLRAGDTAVYYCAKEEFLPGTHYYYGMDVWGQGTTVTVSS
VL: AIQMTQSPSSLSASVGDRVTITCRASQGIRNDLGWYQQKPGKAPKLVIYSASTLQSGVPSRFSGSGSGTDFTLSISSLQPDDFATYYCLQDYNYPWTFGQGTKVEIK
- inhibition of cytotoxicity (A549 lysis by P. aeruginosa 6077, LDH release), IC50: 0.1 µg/mL
- inhibition of cytotoxicity, IC50 relative to mAb166: 28 fold lower
- prevention of RBC lysis (rabbit RBCs, P. aeruginosa 6077), IC50: 0.37 µg/mL
- prevention of RBC lysis, IC50 relative to mAb166: 10 fold lower
